Laboratory results as given in US9205136B2, “Human aminoacyl-tRNA synthetase polypeptides useful for the regulation of angiogenesis” (THE SCRIPPS RESEARCH INSTITUTE, priority 2000, dated 2015).
“Also recorded” adds a separate entry of the source.

Key:
PMNs [1] = experiment: PMN chemotaxis assay (ChemoTX microchemotaxis chamber); type: cell-based, human; conditions: for PMN chemotaxis (PMN migration): sample proteins 1 nM, 45 min
Outline: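 Human PMNs were isolated from healthy-donor blood over Histopaque 1077/1119. 10^4 cells were placed in the upper compartment of a ChemoTX microchemotaxis chamber, with sample protein at 1 nM in the lower compartment. After 45 min, migrated cells were counted as the mean of nine HPFs.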

MPs [2] = experiment: MP tissue factor production (Factor VIIa-dependent Factor Xa formation); type: cell-based, human; conditions: 1 nM sample protein, 4 hours
Method: (§1) Cells for the various cytokine assays described were prepared from acid citrate dextrose-treated blood of normal healthy volunteers. Human PMNs were isolated from the blood by centrifugation (700×g) over Histopaque 1077 and 1119 (Sigma). […] This procedure was repeated twice. Human MPs were isolated by centrifugation on Histopaque 1077 (Sigma). The mononuclear fraction was obtained, washed twice in Hanks' balanced salt solution, resuspended in RPMI-1640 medium (Sigma) containing 10% heat-inactivated fetal bovine serum (Sigma), plated in tissue culture flasks, and incubated in a 6% CO2 incubator at 37° C. for 1-2 hours (Kumagai et al., 1979, J. Immunol. Methods 29:17-25). Nonadherent cells were removed by washing the flasks three times with Hanks' balanced salt solution, and adherent cells were harvested by incubation with calcium-magnesium free phosphate-buffered saline containing 2 mM EDTA for 15 minutes at 4° C., followed by extensive washing.
MP tissue factor production was examined following incubation of 10^4 MPs with 1 nM of sample protein for 4 hours. Tissue factor activity was then inferred from measurements of Factor VIIa-dependent Factor Xa formation (Wolfson et al., 1990 J. Chromatogr., 503:277-81). Each determination shown in FIG. 2 represents the mean of four measurements from at least three independent experiments.

[3] = test system: human umbilical vein endothelial cells (HUVECs); experiment: HUVEC migration assay (modified Boyden chamber); type: cell-based; conditions: 50 nM TyrRS molecule or 0.5 nM VEGF165, 6 hours
Method: In contrast, α-chemokines lacking the ELR motif act as angiostatic factors (id.). In order to evaluate the angiogenic activity of TyrRS, which contains the ELR motif, human full-length TyrRS and human mini TyrRS were first examined for their ability to induce endothelial cell migration. Such angiogenic assays were performed using human umbilical vein endothelial cells (HUVECs) (Clonetics, Walkersville, Md.). Cells were maintained in EGM-2® BULLETKIT® medium (Clonetics) in an atmosphere of 6% CO2 at 37° C. according to the supplier's instructions.
Cell migration assays were performed using the modified Boyden chamber (6.5 mm Transwells) with polycarbonate membranes (8.0 μm pore size) (Costar Corp., Cambridge, Mass.) (Masood et al., 1999, Blood 93:1038-44). Wells were coated overnight with 25 μg/mL human fibronectin (Biosource International, Camarillo, Calif.) in PBS and then allowed to air-dry. HUVECs were suspended in Dulbecco's modified Eagle's medium (DMEM) (Gibco-BRL, Gaithersburg, Md.) containing 0.1% BSA (Sigma) and 2×10^5 cells per well were added to the upper chamber. The chemotactic stimulus (50 nM of a given TyrRS molecule or 0.5 nM of human vascular endothelial growth factor-165 (VEGF165) (Biosource International, Camarillo, Calif.)) was placed in the lower chamber, and the cells were allowed to migrate for 6 hours at 37° C. in a 6% CO2 incubator. After incubation, non-migrant cells were removed from the upper face of the Transwell membrane with a cotton swab and migrant cells, those attached to the lower face, were fixed in methanol and visualized with the HEMACOLOR® stain set (EM Diagnostic Systems, Gibbstown, N.J.). Migrating cells were counted in high-power fields (HPFs). HUVECs were suspended in media with the inhibitor for 30 minutes before placement in the chamber. Each determination shown in FIG. 16 represents the average of nine HPF measurements.

PMNs [4] = experiment: 125I-human mini TyrRS binding and competition assay on PMNs; conditions: 10 nM 125I-mini TyrRS, 200-fold molar excess of unlabeled ligand, on ice 2 hours
Outline: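 Human PMNs (2×10^6) in RPMI-1640 with 20 mM Hepes pH 7.4 and 10 mg/ml BSA were incubated with radioiodinated mini TyrRS. Bound and free label were separated by centrifugation through a 10% sucrose/PBS cushion, and cell-associated radioactivity was counted by scintillation.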

MPs [5] = experiment: MP TNFα production (ELISA of culture supernatant); type: cell-based, human; conditions: 1 nM sample protein, 14 hours
Method: as §1
MP TNFα production was examined following incubation of 10^5 MPs with 1 nM of sample protein for 14 hours. Aliquots of the culture supernatant were then assayed for TNFα production using a TNFα enzyme-linked immunosorbent assay kit (Sigma). Each determination shown in FIG. 2 represents the mean of four measurements from at least three independent experiments.

type A IL-8 receptor = biological target: T1, type A IL-8 receptor (Homo sapiens, UniProt P25024); experiment: Binding to RBL2H3 cells transfected with IL-8 receptor type A; conditions: read-out: Kd on cells expressing the type A IL-8 receptor; transfected RBL2H3 rat basophilic leukemia cells
T1 construct: expressed in transfected cells; host or cells: RBL2H3 rat basophilic leukemia cells
T1 sequence (P25024 1-350): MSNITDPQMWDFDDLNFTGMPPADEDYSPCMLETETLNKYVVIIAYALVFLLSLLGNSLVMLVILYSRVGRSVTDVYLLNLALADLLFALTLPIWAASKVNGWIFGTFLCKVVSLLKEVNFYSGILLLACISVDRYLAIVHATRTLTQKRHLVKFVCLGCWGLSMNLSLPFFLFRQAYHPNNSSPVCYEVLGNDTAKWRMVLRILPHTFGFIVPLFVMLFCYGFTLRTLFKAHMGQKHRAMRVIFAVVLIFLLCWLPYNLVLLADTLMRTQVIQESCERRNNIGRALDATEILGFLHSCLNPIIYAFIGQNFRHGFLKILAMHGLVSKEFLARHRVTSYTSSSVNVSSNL
Method: Following incubation, cells were separated from unbound radioactivity as described herein.
Untransfected RBL2H3 cells express neither the type A nor type B receptors.

B1: mini TyrRS: truncated TyrRS, residues 1-364 of full-length TyrRS, amino-terminal catalytic domain (protein)
chain: MGDAPSPEEKLHLITRNLQEVLGEEKLKEILKERELKIYWGTATTGKPHVAYFVPMSKIADFLKAGCEVTILFADLHAYLDNMKAPWELLELRVSYYENVIKAMLESIGVPLEKLKFIKGTDYQLSKEYTLDVYRLSSVVTQHDSKKAGAEVVKQVEHPLLSGLLYPGLQALDEEYLKVDAQFGGIDQRKIFTFAEKYLPALGYSKRVHLMNPMVPGLTGSKMSSSEEESKIDLLDRKEDVKKKLKKAFCEPGNVENNGVLSFIKHVLFPLKSEFVILRDEKWGGNKTYTAYVDLEKDFAAEVVHPGDLKNSVEVALNKLLDPIREKFNTPALKKLASAAYPDPSKQKPMAKGPAKNSEPEEVILEHHHHHH
modifications: His6 tag; Human mini TyrRS in pET20B
notes: truncated TyrRS, residues 1-364 of full-length TyrRS, amino-terminal catalytic domain
In the case of B1, the “concentration dependence of PMN migration” value (PMNs [1]) is reported as “bell-shaped concentration dependence”, the “PMN chemotaxis (PMN migration)” value (PMNs [1]) is reported as “did induce PMN migration” and the “PMN chemotaxis (PMN migration)” value (PMNs [1]; listed as human mini TyrRS) is reported as “led to an induction of PMN migration”. The “MP tissue factor production” value (MPs [2]) was “did not stimulate production”, the HUVEC chemotaxis [3] was “stimulated induction of HUVEC chemotaxis” and the “inhibition of 125I-mini TyrRS binding to PMNs by unlabeled ligand” value (PMNs [4]) was “inhibited the binding; also recorded: inhibited by the presence of excess amounts of unlabeled mini TyrRS”. For the same molecule, the “MP TNFα production” value (MPs [5]) was “did not stimulate production” and the Kd (type A IL-8 receptor) was 8 nM.
